Consider one substance from doi:10.1101/869214.

In this test the target is calf collagen type I (calf) (UniProt P02453). Put plainly: ELISA. (In an ELISA, binding on a coated surface is turned into a signal by an enzyme label.)
Sequence of UniProt P02453 (P02453 162-1217, chain 1 of 2): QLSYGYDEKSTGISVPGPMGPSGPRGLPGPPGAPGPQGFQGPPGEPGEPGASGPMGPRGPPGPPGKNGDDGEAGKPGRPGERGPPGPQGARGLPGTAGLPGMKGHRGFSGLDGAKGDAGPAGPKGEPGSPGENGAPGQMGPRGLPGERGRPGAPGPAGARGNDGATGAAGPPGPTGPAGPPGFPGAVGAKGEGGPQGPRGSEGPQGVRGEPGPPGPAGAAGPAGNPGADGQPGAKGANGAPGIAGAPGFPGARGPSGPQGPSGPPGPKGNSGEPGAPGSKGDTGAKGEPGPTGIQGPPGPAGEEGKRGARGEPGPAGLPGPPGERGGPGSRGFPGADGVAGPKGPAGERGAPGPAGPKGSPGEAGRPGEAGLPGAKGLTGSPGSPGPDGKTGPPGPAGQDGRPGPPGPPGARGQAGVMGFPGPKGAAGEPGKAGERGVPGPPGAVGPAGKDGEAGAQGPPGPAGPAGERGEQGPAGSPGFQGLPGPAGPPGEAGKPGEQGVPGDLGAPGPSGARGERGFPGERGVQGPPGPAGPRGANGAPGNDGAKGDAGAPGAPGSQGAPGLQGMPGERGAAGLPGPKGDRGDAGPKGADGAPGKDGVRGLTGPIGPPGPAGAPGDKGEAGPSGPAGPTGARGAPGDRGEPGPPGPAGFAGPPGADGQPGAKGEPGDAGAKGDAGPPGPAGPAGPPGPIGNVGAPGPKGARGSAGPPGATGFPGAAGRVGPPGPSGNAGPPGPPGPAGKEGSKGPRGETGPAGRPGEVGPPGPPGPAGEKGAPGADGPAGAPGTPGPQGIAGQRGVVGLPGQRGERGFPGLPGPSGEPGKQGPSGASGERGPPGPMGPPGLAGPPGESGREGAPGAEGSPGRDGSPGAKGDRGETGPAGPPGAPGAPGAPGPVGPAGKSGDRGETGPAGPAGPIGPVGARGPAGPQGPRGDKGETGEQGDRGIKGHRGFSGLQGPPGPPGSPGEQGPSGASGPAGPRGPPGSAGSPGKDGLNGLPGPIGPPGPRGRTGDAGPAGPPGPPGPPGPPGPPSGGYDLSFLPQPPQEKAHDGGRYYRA
Sequence of UniProt P02453 (P02465 80-1117, chain 2 of 2, further chain): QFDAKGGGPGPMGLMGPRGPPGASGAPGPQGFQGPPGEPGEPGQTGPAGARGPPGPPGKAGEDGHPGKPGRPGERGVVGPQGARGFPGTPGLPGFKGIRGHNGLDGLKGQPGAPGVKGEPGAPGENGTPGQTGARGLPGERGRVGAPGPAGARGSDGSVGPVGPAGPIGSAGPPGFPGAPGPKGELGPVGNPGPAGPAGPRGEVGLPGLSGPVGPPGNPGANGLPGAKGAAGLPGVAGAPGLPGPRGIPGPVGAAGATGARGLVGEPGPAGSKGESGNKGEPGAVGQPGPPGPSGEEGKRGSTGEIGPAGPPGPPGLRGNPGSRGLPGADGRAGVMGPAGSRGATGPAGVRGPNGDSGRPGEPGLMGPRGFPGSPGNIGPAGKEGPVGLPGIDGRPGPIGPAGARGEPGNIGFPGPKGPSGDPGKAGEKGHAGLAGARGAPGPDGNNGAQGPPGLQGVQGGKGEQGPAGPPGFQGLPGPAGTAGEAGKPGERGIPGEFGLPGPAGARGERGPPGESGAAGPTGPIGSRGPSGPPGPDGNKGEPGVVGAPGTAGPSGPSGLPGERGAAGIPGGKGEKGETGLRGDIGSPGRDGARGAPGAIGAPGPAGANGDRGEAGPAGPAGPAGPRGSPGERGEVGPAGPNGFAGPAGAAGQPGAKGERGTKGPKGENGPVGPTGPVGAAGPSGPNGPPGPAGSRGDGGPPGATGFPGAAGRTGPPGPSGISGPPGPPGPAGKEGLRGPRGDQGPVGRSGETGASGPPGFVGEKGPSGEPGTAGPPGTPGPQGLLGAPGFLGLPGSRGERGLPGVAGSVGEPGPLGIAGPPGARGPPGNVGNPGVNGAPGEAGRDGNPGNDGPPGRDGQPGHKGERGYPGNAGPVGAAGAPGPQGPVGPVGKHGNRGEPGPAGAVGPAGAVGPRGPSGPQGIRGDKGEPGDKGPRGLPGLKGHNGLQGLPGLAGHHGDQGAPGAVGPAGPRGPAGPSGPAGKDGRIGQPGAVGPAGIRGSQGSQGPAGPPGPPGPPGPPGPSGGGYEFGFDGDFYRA

The substance “Yersinia enterocolitica adhesin YadA head domains with a C-terminal His6-tag (domain or fragment)” displayed a percent binding at pH 4 of 50%.
